The record followed here is patent US20090176711A1, “INHIBITORS OF AMYLOID PRECURSOR PROTEIN PROCESSING” (priority 2008, published 2009).

In assay [1] the test system is cleavage of Substrate M by β-secretase. As to the kind of experiment: Inhibition of cleavage of Substrate M by β-secretase by complementary and deletion peptides (Examples 1, 5, 6; assay format not stated). Format: biochemical. To be noted: for inhibition of cleavage of Substrate M by β-secretase: FIG. 4; for concentration dependent inhibitory activity, activity group: various concentrations, Substrate M (FIG. 8); for inhibitory activity of deletion peptides on cleavage of Substrate M: 10 inhibitor/substrate ratio, Substrate M 50 μM. The method, then: So far we have focused on c-Sub M peptide. Serial deletions were made from N-terminus or C-terminus of c-Sub M (FIG. 5), and we investigated effect of the deletions on the cleavage of Substrate M. The optimum peptide/substrate ratio for inhibition on the cleavage of substrate was determined by observing the inhibition percentage at various peptide/substrate ratios (FIG. 4). Subsequently, the inhibitory activity of the deletion peptides were tested at 10 inhibitor/substrate ratio and the concentration of the Substrate M was 50 μM. Deletion of the first two amino acids from the N-terminus had little effect on the activity and deletion of five amino acids from the C-terminus of c-Sub M had little effect on the inhibitory activity (FIG. 6). Further deleted peptides were tested for inhibitory activity on the cleavage of Substrate M (FIG. 7).
The above-mentioned peptides that have inhibitory activity were tested at various concentrations for their inhibitory activities on their mutant substrate Substrate M (FIG. 8).

Assay [2] relates to Substrate M (Sub M, SEVNLDAEFR; β-secretase cleavage site of APPsw). As to the kind of experiment: Binding of biotin-labeled Substrate M to immobilized complementary (HC) peptides. The conditions noted are these: for binding activity for Sub M: HC peptides chemically coupled to plate, bio-Sub M. The method, then:
(§1) Complementary peptides (0.2, 2, 20, and 200 μM) were dissolved in phosphate buffered saline (PBS) (pH 7.4) and fixed to microtiter wells for 5 hr at 37° C. The wells were blocked with blocking buffer (3% BSA/PBS) for 1 hr at 37° C. Either N-terminally biotinylated Substrate W or M (20 μM) in blocking buffer was added and incubated for overnight at 4° C. Streptavidin-horseradish peroxidase in blocking buffer was added to detect resulting bound substrates. The plate was incubated for 2 hr at room temperature (RT), followed by addition of 3,3′,5,5′-tetramethyl-benzidine (TMB) as substrate for horseradish peroxidase for color reaction.
(§2) Reacti-Bind™ maleic anhydride-activated polystyrene plate (Pierce, IL, USA) was coated with 50 μl of HC peptide (200 μM in distilled water) by chemical coupling for 3 h at room temperature (RT) and washed three times with phosphate buffered saline (PBS) containing 0.05% tween 20 (PBST). The plate was blocked with blocking buffer (0.5% gelatin in PBS) for 1 h at RT. After discarding blocking buffer, biotinylated BACE1 substrates (200 μM) in blocking buffer was applied on the plate and incubated for 2.5 h at RT. Each well was washed three times with PBST. The bound biotinylated BACE1 substrates were detected by incubation with streptavidin-horseradish peroxidase (Str-HRP, 125 mU/ml in blocking buffer) for 2 h at RT. Color reaction was carried out with 50 μl of 3,3′,5,5′-Tetramethylbenzidine Liquid Substrate (Sigma-Aldrich, MO, USA). After stopping the reaction by addition of an equal volume of 1 N HCl, absorbance at 450 nm was read in an automated ELISA reader (EL 312e, Bio-Tek Instruments, VT, USA). All assays were carried out in duplicate.

For assay [3], the target named is T1, Substrate W (Sub W, SEVKMDAEFR; β-secretase cleavage site of wild type APP) (Homo sapiens, UniProt P05067).
T1 construct: […]; purchased Peptron, Inc; host or cells: chemical synthesis
As to the kind of experiment: Binding of biotin-labeled Substrate W to immobilized complementary (HC) peptides. The conditions noted are these: complementary peptide immobilized, biotin-labeled Substrate W. The method, then: as §1
In particular, for Substrate W, complementary peptides (200 μM) dissolved in phosphate buffered saline (PBS) (pH 7.4) were chemically coupled to Reacti-Bind Maleic Anhydride Activated Polystyrene wells (Pierce Biotechnology, Inc.) for overnight at room temperature (RT). Remaining active sites of the plate were inactivated by adding ethanolamine (1 M) for 1 hr at RT. The wells were blocked with blocking buffer (3% BSA/PBS) for 1 hr at RT. N-terminally biotinylated Substrate W (20 μM) in blocking buffer was added and incubated for 3 hr at RT. Streptavidin-horseradish peroxidase in blocking buffer was added to detect resulting bound substrates. The plate was incubated for 2 hr at room temperature (RT), followed by addition of 3,3′,5,5′-tetramethyl-benzidine (TMB) as substrate for horseradish peroxidase for color reaction.
as §2

For assay [4], the system named is cleavage of F-Substrate M (f-Sub M) by rhBACE1. As to the kind of experiment: Fluorometric (FRET) assay for cleavage of F-Substrate M by rhBACE. Format: biochemical, human. To be noted: for inhibitory activity for cleavage of f-Sub M by rhBACE1: f-Sub M 10 μM. The source says:
This assay system utilizes fluorescence resonance energy transfer (FRET) technology. Substrate M was synthesized with two fluorophores, a fluorescent donor and a proprietary quenching acceptor (purchased from a commercial source, R&D Systems). […] Upon cleavage of substrate by β-secretase, the fluorophore is separated from the quenching group, restoring the full fluorescence yield of donor.
Substrate labeled with fluorophores will be called F-Substrate M (R&D Systems). Recombinant human β-secretase will be called rhBACE (recombinant human β-site APP cleavage enzyme) (purchased from R&D systems).
F-Substrate M (20 μM) was preincubated with varying concentrations of complementary peptides in assay buffer (0.1 M NaOAc, pH 4.0) for 1 hr at RT. rhBACE (70 nM) in assay buffer was added. Cleavage by rhBACE was detected by reading emitted fluorescence level.
In this assay system, fluorescence resonance energy transfer (FRET) technology was utilized. Swedish mutant APP substrate (f-Sub M) with a fluorescent donor and a proprietary quenching acceptor (7-methoxycoumarin-4-acetyl-SEVNLDAEFRK(Dnp)-RR-NH2) was purchased from R&D systems, Inc (MN, USA). […] Upon cleavage of substrate by rhBACE1 (R&D Systems, Inc., MN, USA), the fluorescence donor is separated from the quenching group, restoring the full fluorescence yield of the donor. f-Sub M (10 μM) was pre-incubated with HC peptide in assay buffer (0.1 M NaOAc, pH 4.0) for 2 h at RT. After pre-incubation, substrate and HC peptide mixture in assay buffer was transferred to FluoroNunc™ 96 well white plate (Nunc, Roskilde, Denmark), and rhBACE1 (70 nM) was added. Time-dependent emission of fluorescence (excitation at 320 nm, emission at 405 nm) was monitored in a Molecular Devices SpectraMax Gemini EM fluorescence reader (CA, USA) for 1 h at 37° C. All assays were carried out in duplicate.

Assay [5] deals with T2, f-Sub M (7-methoxycoumarin-4-acetyl-SEVNLDAEFRK(Dnp)-RR-NH2).
T2 peptide: Mca-SEVNLDAEFRK(Dnp)RR-NH2
As to the kind of experiment: cell-based or functional assay.

Assay [6] deals with T3, N-terminally biotinylated Substrate W.
T3 construct: also called bio-Sub W; Sub W
T3 peptide: Biotin-SEVKMDAEFR
As to the kind of experiment: plate assay: HC peptide chemically coupled to wells, bio-Sub W, streptavidin-HRP (FIG. 27). The method, then: as §2
Thereafter, it was investigated if the c-Sub M and the deletions series bind to wild type Sub W. The results will give us important information on possibility of inhibition of wild type of APP cleavage in cells by the HC peptides derived from Sub M in view of the poor cleavage of Sub W by rhBACE1 in vitro. […] Thus, there is possibility that the HC peptides for Sub M (c-Sub M series) or its peptidomimetics will inhibit the cleavage of wild type APP by BACE1 in cells.

A further assay deals with T4, Sub-ST6Ga11.
T4 peptide: DYEALTLQAKEFQMPKSQE
As to the kind of experiment: cell-based or functional assay.

Assay [7] has as its target T5, Substrate M (non-labeled).
T5 peptide: SEVNLDAEFR
As to the kind of experiment: cell-based or functional assay.

“Also recorded” adds a separate entry of the source. Non-standard residues stand in square brackets, D forms with d. No end group written: not given here. *: point of attachment. Biotin = O=C1N[C@H]2[C@H](CS[C@H]2CCCCC(=O)*)N1; Dnp = O=[N+]([O-])c1ccc(*)c([N+](=O)[O-])c1; Mca = COc1ccc2c(CC(=O)*)cc(=O)oc2c1; Ahx = NCCCCCC(=O)O

Turning to RLHLDLRLKA [Sub M-c], the “inhibition of cleavage of Substrate M by β-secretase” value (shortened to “inhibition … by β-secretase”) in assay [1] is listed as “do not inhibit cleavage”. The “binding to Substrate M” value in assay [2] (complementary peptide immobilized, biotin-labeled Substrate M) was “do not bind”.
As to “SEFCI (also: cyclic, mode of cyclisation not given here) [c-SubM ΔC5]”, the “concentration dependent inhibitory activity, activity group” value in assay [1] is recorded as “medium activity”.
Consider CIQI [C-Sub MΔN3C3], for which, in assay [1], the “inhibitory activity of deletion peptides on cleavage of Substrate M” value is listed as “considerable inhibitory activity” and the “concentration dependent inhibitory activity, activity group” value was “medium activity”.
As to “SEFCIQI (also: cyclic, mode of cyclisation not given here) [c-SubM ΔC3]”, the “concentration dependent inhibitory activity, activity group” value in assay [1] is “most active group”.
Take RLHFYLRLKA [Sub W-c]: the “inhibition … by β-secretase” value in assay [1] is recorded as “do not inhibit cleavage”. Besides, in assay [3], the “binding to Substrate W” value is listed as “do not bind”.
Consider “CIQIHF (also: cyclic, mode of cyclisation not given here) [c-Sub M ΔN3C1]”, for which the “inhibitory activity for cleavage of f-Sub M by rhBACE1” value in assay [4] (N-terminal deletions of c-Sub M ΔC1, HC peptide 0.5 mM) is “maintains much of the original activity of c-Sub M; also recorded: without sacrificing the inhibitory activity too much”. The “inhibitory activity relative to c-Sub M ΔN1C1” value in assay [4] (substrate concentration 10 μM) was “about one tenth”. In assay [1], the “inhibitory activity of deletion peptides on cleavage of Substrate M” value is “considerable inhibitory activity” and the “concentration dependent inhibitory activity, activity group” value was “less activity”.
Turning to “SEFCIHLHFR (also: cyclic, mode of cyclisation not given here) [c-Sub W]”, in assay [4] (HC peptide 1 mM), the “inhibitory activity for cleavage of f-Sub M by rhBACE1” value is “higher inhibitory activity”. Further, in assay [1], the “inhibition … by β-secretase” value was “inhibit cleavage” and the “concentration dependent inhibitory activity, activity group” value is “medium activity”. Moreover, the “binding activity for Sub M” value in assay [2] is listed as “weak but significant binding”. The “binding to Substrate W” value in assay [3] was “bind”.
For the molecule SEFCIQIHF [c-Sub M ΔC1], in assay [2], the “binding activity for Sub M” value is “relatively high binding activity”.

B1: c-Sub M ΔC2 (peptide)
peptide: SEFCIQIH-NH2
Regarding B1, in assay [5], the “inhibitory activity for the cleavage of f-Sub M by rhBACE1 (FRET; HC peptide 1 mM, f-Sub M 10 µM)” value (shortened to “inhibitory activity for the cleavage”) worked out at 44%.

B2: c-Sub M ΔC4 (peptide)
peptide: SEFCIQ-NH2
For the molecule B2, the “inhibitory activity for the cleavage” value in assay [5] is above 90%.

B3: c-Sub M ΔN1C1 (peptide)
peptide: EFCIQIHF-NH2
notes: also called one amino acid deletion from N-terminal of c-Sub M ΔC1
B3: in assay [6], the “fold binding to Sub W relative to c-Sub W” value worked out at 2.5 fold. Moreover, in the assay with Sub-ST6Ga11, the “inhibition of the cleavage of Sub-ST6Ga11 by rhBACE1 (HPLC), inhibitor/substrate ratio 20” value turned out to be 40% and the “inhibition of the cleavage of Sub-ST6Ga11 by rhBACE1 (HPLC), up to 10 inhibitor/substrate ratio” value is around 10%. For the same molecule, in assay [7], the “inhibition of the cleavage of Sub M by rhBACE1 (HPLC), inhibitor/substrate ratio 20” value is 100% and the “inhibition of the cleavage of Sub M by rhBACE1 (HPLC), up to 10 inhibitor/substrate ratio” value came out at 60%. In addition, the “IC50 of inhibition of f-Sub M (10 µM) cleavage by rhBACE1 (FRET)” value in assay [5] was 15 µM.

B4: 6-aminohexanoic acid-c-Sub M ΔN3C1 (peptide)
peptide: [Ahx]CIQIHF-NH2
modifications: N-terminus assumed
SMILES: CC[C@H](C)[C@H](NC(=O)[C@H](CCC(N)=O)NC(=O)[C@@H](NC(=O)[C@H](CS)NC(=O)CCCCCN)[C@@H](C)CC)C(=O)N[C@@H](Cc1c[nH]cn1)C(=O)N[C@@H](Cc1ccccc1)C(N)=O
Take B4: in assay [5], the “in vitro inhibitory activity on cleavage of f-Sub M by rhBACE1 relative to c-Sub M ΔN3C1 (FRET)” value was ~0.5 fold of c-Sub M ΔN3C1.

B5: c-Sub M ΔC3 (peptide)
peptide: SEFCIQI-NH2
Regarding B5, the “inhibitory activity for the cleavage” value in assay [5] was above 90%.

B6: c-Sub M ΔN2C1 (peptide)
peptide: FCIQIHF-NH2
notes: also called FCIQIHF
As for B6, the binding result in assay [6] was “binds”. Besides, the “percent of ST6Ga11 peptide cleavage by β-secretase blocked (HPLC), 25-fold inhibitor” value with Sub-ST6Ga11 is 25%. For the same molecule, the “percent of Sub M cleavage by β-secretase blocked (HPLC), 25-fold inhibitor” value in assay [7] is around 60%.

B7: c-Sub M ΔN3C1 (peptide)
peptide: CIQIHF-NH2
notes: also called c-Sub M ΔC1N3; c-Sub ΔN3C1
Take B7: the binding result in assay [6] is “binds”. The “inhibitory activity relative to c-Sub M ΔN1C1, f-Sub M (10 µM) cleavage by rhBACE1 (FRET)” value in assay [5] was ~0.1 fold of c-Sub M ΔN1C1.

B8: c-Sub M ΔC5 (peptide)
peptide: SEFCI-NH2
As to B8, the “inhibitory activity for the cleavage” value in assay [5] is above 90%.
